Common to all, as to type: binding
The nature of experiment [1]: Fragments of wtGBP in response to glucose: fluorescence quenching of labeled tGBPs. Particulars: labeled tGBP 1×10^-7 M. How it is done:
(§1) Once the PCR amplified gene fragments were obtained, they were inserted into expression vector pQE70. The constructed expression plasmids were then transformed into the auxotrophic strain of E. coli. Protein expression was performed using medium shift method. A single freshly transformed colony was used to inoculate 5 mL of M9 media supplemented with 0.4% glucose; 1 mM MgSO4; 0.1 mM CaCl2; 1 mM Thiamine; 0.1 volume of a solution containing 0.01% (w/v) each of 20 amino acids, less any amino acid that is to be replaced by unnatural amino acids (e.g., each of 19 amino acids where one is to be replaced); 40 μg/mL of the remaining amino acid(s) (e.g., 20th amino acid), and appropriate amount of antibiotic. T his culture was allowed to grow overnight at 37° C., 250 rpm. 500 mL culture containing the same ingredients was inoculated with the overnight grown 5 mL culture. This culture was then grown until the optical density (OD600) was about 0.5. The cells were then centrifuged at 10000 rpm for 10 min, 25° C., the supernatant was discarded and the cells were resuspended in a 0.9% NaCl solution for washing, and this was repeated three times. The cells were then resuspended in 500 mL M9 minimal media which was supplemented with 0.4% glucose, 1 mM MgSO4, 0.1 mM CaCl2, 1 mM Thiamine, 0.1 volume of a solution containing 0.01% (w/v) each of 20 amino acids less any amino acid(s) to be replaced by unnatural amino acids (e.g., 19 amino acids), appropriate amount of antibiotic, and grown at 37° C. for 30 min to further deplete natural amino acid that has to be replaced by the unnatural amino acid. 1 mM IPTG was then added with 0.1 mM of unnatural amino acid to the culture and was grown overnight at 37° C. The cells were harvested by centrifugation and the protein was purified using Ni-NTA resin since GBP mutant has His-tag. The purified protein was then labeled with fluorophore MDCC (N-[2-(1-maleimidyl(ethyl]-7-(diethylamino)coumarin-3-carboxamide), e.g., labeled at cysteine-152 of SEQ ID NO: 1.
Fragments of wtGBP in Response to Glucose. In order to check for activity of the labeled tGBPs, an assay was performed. Upon glucose binding, the proteins should undergo a conformational change, resulting in a change in the local environment of the fluorophore molecule, which leads to a change in the fluorescence signal observed. The assay was carried out by preparing glucose solutions of concentrations ranging from 1×10^−1M to 1×10^−6M. These glucose standards were then added to 180 μL samples of the labeled tGBPs at a concentration of 1×10^−7M. The resulting fluorescence intensity was measured. The results obtained from one study including the isolated polypeptide molecules of SEQ ID NO: 2 (tGBP1) and SEQ ID NO: 3 (tGBP2) are presented in Table C.

Experiment [2] can be described thus: Fluorescence response to glucose of MDCC-labeled fragment amino acids 87-271 of wtGBP.
Source text: Expression and Labeling of Isolated Polypeptide Molecules. In order to obtain the gene for insertion into an expression vector, PCR amplification was employed. Primers were designed to amplify isolated polypeptide molecules of interest, e.g., polypeptide molecules of SEQ ID NOS: 1-7, and a fragment including amino acids 87-271 of SEQ ID NO: 1.
as §1

A short description of experiment [3]: Unnatural analogues of wtGBP in response to glucose: fluorescence dose response. To be noted: labeled protein 5×10^-7 M, glucose 10^-2 M-10^-8 M, 15 min, room temperature. An excerpt: Unnatural Analogues of wtGBP with Unnatural Tryptophans. Unnatural analogues of wtGBP from E. coli were produced, where natural tryptophans were replaced with unnatural tryptophans. Tryptophan auxotrophic strain of E. coli (#27873) was obtained. Plasmid placI and plasmid pQE70 containing the genetic sequence of the wtGBP mutated at 152 (containing a cysteine in this position for fluorophore attachment) were transformed into the tryptophan auxotrophic strain of E. coli. Protein expression was performed using medium shift method. A single freshly transformed colony was used to inoculate 5 mL of M9 media supplemented with 0.4% glucose, 1 mM MgSO4, 0.1 mM CaCl2, 1 mM Thiamine, 0.1 volume of a solution containing 0.01% (w/v) each of 18 amino acids (less Trp and Leu), 40 μg/mL Leu, 40 μg/mL Trp, 100 μg/mL Ampicillin, and 35 μg/mL Chloramphenicol.
This culture was allowed to grow overnight at 37° C., 250 rpm. 500 mL culture containing the same ingredients was inoculated with the overnight grown 5 mL culture. This culture was then grown till the optical density (OD600) was about 0.5. […]
Unnatural Analogues of wtGBP in Response to Glucose. […] Fluorescence of the samples was then measured using a Carry Eclipse Fluorimeter.

For “tGBP1: fragment of wtGBP from E. coli including amino acids 14-296 of SEQ ID NO: 1”, the “Percent Fluorescence Quenching” value in experiment [1] (Glucose 1 × 10^-1 M) is listed as 20.37%; in experiment [1] (Glucose 1 × 10^-2 M), 14.61%; in experiment [1] (Glucose 1 × 10^-3 M) it was 7.5538%; in experiment [1] (Glucose 1 × 10^-4 M), 2.433%; in experiment [1] (Glucose 1 × 10^-5 M) it was 2.908%; in experiment [1] (Glucose 1 × 10^-6 M) it was −0.09539%.

B1: fragment containing amino acids 87-271: fragment containing amino acids 87-271 of wtGBP from E. coli (SEQ ID NO: 1) (protein)
chain: VVFFNKEPSRKALDSYDKAYYVGTDSKESGIIQGDLIAKHWAANQGWDLNKDGQIQFVLLKGEPGCPDAEARTTYVIKELNDKGIKTEQLQLDTAMWDTAQAKDKMDAWLSGPNANKIEVVIANNDAMAMGAVEALKAHNKSSIPVFGVDALPEALALVKSGALAGTVLNDANNQAKATFDLAKN
modifications: E. Coli
In the case of B1, the “Fluorescence Intensity (AVG)” value in experiment [2] (Glucose Concentration 0 M) was found to be 485.282; in experiment [2] (Glucose Concentration 1.00E-03 M), 468.792; in experiment [2] (Glucose Concentration 1.00E-04 M) it was 467.383; in experiment [2] (Glucose Concentration 1.00E-05 M), 478.877; in experiment [2] (Glucose Concentration 1.00E-06 M) it was 497.146; in experiment [2] (Glucose Concentration 1.00E-07 M), 463.041. Besides, in experiment [2] (Glucose Concentration 1.00E-08 M), the “Fluorescence Intensity (AVG)” value is 442.682. For the same molecule, in experiment [2] (glucose 0 to 1.00E-03 M), the “Response to glucose (trend of fluorescence)” value was “large error and no clear trend in response to glucose”.

B2: SEQ ID NO: 3, where all natural tryptophans are replaced with 5-fluorotryptophans: unnatural analogue fragment of wtGBP, MDCC labeled (protein)
chain: DNFMSVVRKAIEQDAKAAPDVQLLMNDSQNDQSKQNDQIDVLLAKGVKALAINLVDPAAAGTVIEKARGQNVPVVFFNKEPSRKALDSYDKAYYVGTDSKESGIIQGDLIAKHWAANQGWDLNKDGQIQFVLLKGEPGHPDAEARTTYVIKELNDKGIKTEQLQLDTAMWDTAQAKDKMDAWLSGPNANKIEVVIANNDAMAMGAVEALKAHNKSSIPVFGVDALPEALALVKSGALAGTVLN
modifications: all Trp to 5-fluorotryptophan; MDCC label; E. Coli
notes: unnatural analogue fragment of wtGBP, MDCC labeled
Turning to B2, the “Change in fluorescence intensity with increasing concentrations of glucose” value in experiment [3] is recorded as “dose-dependent change in fluorescence intensities”.

B3: SEQ ID NO: 3, where all natural leucines are replaced with 5,5,5-trifluoroleucines: unnatural analogue fragment of wtGBP, MDCC labeled (protein)
chain: B2 chain
modifications: all Leu to 5,5,5-trifluoroleucine; MDCC label; E. Coli
notes: as for B2
Turning to B3, the “Change in fluorescence intensity with increasing concentrations of glucose” value in experiment [3] was “dose-dependent change in fluorescence intensities”.

B4: tGBP2: fragment of wtGBP from E. coli including amino acids 14-256 of SEQ ID NO: 1 (protein)
chain: B2 chain
modifications: E. Coli
Regarding B4, the “Percent Fluorescence Quenching” value in experiment [1] (Glucose 1 × 10^-1 M) is 6.266%; in experiment [1] (Glucose 1 × 10^-2 M) it was 7.502%; in experiment [1] (Glucose 1 × 10^-3 M) it was 8.966%; in experiment [1] (Glucose 1 × 10^-4 M), 5.874%; in experiment [1] (Glucose 1 × 10^-5 M), 2.795%; in experiment [1] (Glucose 1 × 10^-6 M), 1.748%.

These data come from patent publication US8465981B2, “Polypeptides, systems, and methods useful for detecting glucose” (University of Kentucky Research Foundation, priority 2007, dated 2013).
